Test results as given in patent US20110318757A1 (MAB FACTORY, published 2011).
Residue numbers refer to the chain shown, from its start.

T1: 32-mer MUC1 peptide (human)
T1 construct: also called MUC1 peptide antigen (32mer cys); MUC1 peptide (32 mer cys)
T1 peptide: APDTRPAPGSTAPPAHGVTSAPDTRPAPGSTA

T2: MUC1 peptide (15 aa+cystein, APDTRPAPGSTAPPAC) (human)
T2 construct: If the listing entry has only 15 residues, a C-terminal Cys must be added; Immobilized on the SPR chip; also called synthetic MUC1 peptide
T2 peptide: APDTRPAPGSTAPPAC

B1: R764-B7 (HT186-B7 IgG) (antibody, V domains shown)
VH: QMQLVQSGAEVKKPGASVKVSCKASGYTFTGHYMHWVRQAPGQGLEWMGWIDPVTGGTKYAQNFQGWVTMTRDTSIRTAYMELSRLRSDDTAMYYCAREVTGDRGQFDKWGQGTLVTVAS
VL: QSVLTQPPSVSVAPGKTARITCGGNNIGSKSVHWYQQKPGQAPALVIYYGSYRPSGIPERFSGSNYGNTATLTIRRVEAGDEADYYCQVWDSSSDWVFGGGTKLTVLG
notes: Human IgG1, lambda, produced in YB2/0 cells
B2: R764-D11 (HT186-D11 IgG) (antibody, V domains shown)
VH: B1 VH with G8E, V11L, T28S, M81L
VL: B1 VL with Y52N, Y66S, R75S
notes: Human IgG1, lambda, produced in YB2/0 cells; also called R764 HT186-D11
B3: HT220-M-D1 scFv (scFv)
scFv: QMLLVQSGAEAKKPGASVKVSCKASGYTFTGHYMHWVRQAPGQGLEWMGWIDPVTGGTKYAQNFQGWVTMTRDTSIRTAYMELSRLRPDDTAMYYCAREVTGDRGQFDKWGQGTLVTVASASTKGPSVKLEEGEFSEARVQSVLTQPPSVSVVPGKTARIICGGNNIGSKSVHWYQQKPGQAPVLVIYNNSDRPSGIPERFSGSNSGNMATLTISRVEAGDESDYYCQVWDSSSDWVFGGGTRLTILGQSKAAPSVTLFPPS
notes: scFv as VH-truncated CH1-linker-VL-truncated CL, made in the E. coli periplasm and purified by its His-tag; not shown: C-terminal His-tag used for purification and detection
B4: HT186-B7 scFv (scFv)
scFv: QMQLVQSGAEVKKPGASVKVSCKASGYTFTGHYMHWVRQAPGQGLEWMGWIDPVTGGTKYAQNFQGWVTMTRDTSIRTAYMELSRLRSDDTAMYYCAREVTGDRGQFDKWGQGTLVTVASASTKGPSVKLEEGEFSEARVQSVLTQPPSVSVAPGKTARITCGGNNIGSKSVHWYQQKPGQAPALVIYYGSYRPSGIPERFSGSNYGNTATLTIRRVEAGDEADYYCQVWDSSSDWVFGGGTKLTVLGQPKAAPSVTLFPPS
notes: as for B3
B5: HT186-G2 scFv (scFv)
scFv: RMQLVQSGAEVKKPGASVKLSCKASGYTFAGHYMHWVRQAPGRGLEWMGWIDPVTGGTKYAQNFQGWVTMTRDTSIRTAYMELSRLRSDDTAMYYCAREVTGDRGQFDKWGQGTLVTVASASTKGPSVKLEEGKFLEAHVQSVLTQPPSVSVAPGKTARITCGGNNIGSKSVHWYQQKPGQAPVLVIYYGSDRSSGIPERFSGSNSGNTATLTISRVEAGDEADYYCQVWDSSSDWVFGGGTKLTVLGQPKAAPSVTLFPPS
notes: as for B3
B6: HT186-D11 scFv (scFv)
scFv: B4 scFv with G8E, V11L, T28S, M81L, A121S, Y192N, Y206S, R215S, P261S
notes: as for B3
B7: HT220-M-G8 scFv (scFv)
scFv: B4 scFv with K12M, T28S, Q39H, G57S, R77S, A184V, Y192D, Y206T, T209M, R215S
notes: as for B3
B8: HT200-3A-C1 scFv (scFv)
scFv: QMQLVQSGAEVKKPGASVKVSCKASGYTFTGHYMHWVRQAPGQGLEWMGWIDPVTGGTKYAQNFQGWVTMTRDTSIRTAYMELSRLRSDDTAMYYCAREVTGDRGQFDKWGQGTLVTVASASTKGPSAKLEEGEFSEARVQSVLTQPPSVSMAPGETARITCGGNNIGSKSVHWYQQKPGQAPVLVIYNDSDRPSGIPERFSGSNSGKTATLTISRVEAGDEADYYCQVWDSSIDWVFGGGTKLTVLGQPKAAPSVTLFPPS
notes: as for B3

Molecular target: T1, 32-mer MUC1 peptide
Test: ELISA, IgG on coated 32-mer MUC1 peptide
Procedure: (§1) This analysis was done using the ELISA technique wherein the 32-mer MUC1 peptide is immobilized in the wells of a microtitre plate, and wherein the anti-MUC1 antibodies are added later in different concentrations.

Row | Binder | fold stronger binding than R764-G2 and R764-hHMFG1
1 | B1 | 10 times
2 | B2 | 10 times

Molecular target: T1, 32-mer MUC1 peptide
Test: ELISA, 32-mer MUC1 peptide immobilized in microtitre wells, IgG about 0.03 to 8000 ng/well, A450-A620 (preliminary results according to the legend)
Procedure: as §1

Row | Binder | EC50 (read off the curve)
3 | B1 | ~10 ng/well
4 | B2 | ~10 ng/well

Molecular target: T2, MUC1 peptide (15 aa+cystein, …)
Test: SPR, scFv 2-200 nM over immobilized MUC1 peptide, Chip 1 (47 RU)

Row | Ka | Kd | koff | kon | Binder
5 | 2.8e+08 M⁻¹ | 3.7 nM | 0.00011 s⁻¹ | 29000 M⁻¹ s⁻¹ | B3
6 | 7.5e+08 M⁻¹ | 1.3 nM | 4.6e-05 s⁻¹ | 35000 M⁻¹ s⁻¹ | B4
7 | 1e+09 M⁻¹ | 1 nM | 7.2e-05 s⁻¹ | 72000 M⁻¹ s⁻¹ | B5
8 | 1.8e+09 M⁻¹ | 0.57 nM | 2.1e-05 s⁻¹ | 38000 M⁻¹ s⁻¹ | B6
9 | 2.3e+08 M⁻¹ | 4.4 nM | 0.00022 s⁻¹ | 50000 M⁻¹ s⁻¹ | B7
10 | 4.8e+08 M⁻¹ | 2.1 nM | 0.0001 s⁻¹ | 49000 M⁻¹ s⁻¹ | B8

Molecular target: T1, 32-mer MUC1 peptide
Test: titration ELISA, MUC1 peptide (32mer Cys) 50 ng/well, IgG diluted 1:3.16 from 100 µg/mL, detection goat anti-human IgG (Fc) HRP, TMB; mean of three plates, BSA value subtracted; A450-A620
Procedure: 3× Nunc Maxisorp plates coated with 50 ng/well MUC1 peptide antigen (32mer cys, sequence: […]) [0227] Control plate was coated with 100 ng/well BSA [0228] Blocking solution: 2% skim milk powder in PBS-T (0.1% Tween), 1 h, RT [0229] IgG samples were diluted to a final concentration of 100 μg/ml with blocking solution [0230] samples were sequentially diluted 1:3.16 [0231] detection: goat anti-human IgG (Fc spec) HRP conjugate (Sigma, 1:39000), 1 h, RT [0232] Development: TMB substrate, reaction stopped with sulfuric acid after 10 minutes. [0233] A450-A620 measured in a Tecan Sunrise Reader [0234] […] Mean value and standard deviation of three plates (MUC1) calculated [0236] BSA value (negative control) subtracted from mean value [0237] Plotting: [0238]

Row | Binder | EC50 (read off the curve)
11 | B1 | ~0.1 µg/mL
12 | B2 | ~0.1 µg/mL

Molecular target: T2, MUC1 peptide (15 aa+cystein, …)
Test: SPR, scFv over immobilized MUC1 peptide, Chip 2 (14 RU)

Row | Ka | Kd | koff | kon | Binder
13 | 6.3e+08 M⁻¹ | 1.6 nM | 0.00014 s⁻¹ | 90000 M⁻¹ s⁻¹ | B4
14 | 6.6e+08 M⁻¹ | 1.5 nM | 0.00011 s⁻¹ | 73000 M⁻¹ s⁻¹ | B5
15 | 1.5e+09 M⁻¹ | – | – | – | B6

Molecular target: T2, MUC1 peptide (15 aa+cystein, …)
Test: SPR, scFv over immobilized MUC1 peptide, Chip 2 (14 RU); Chip 2 (14 RU MUC1 peptide)

Row | Kd | Binder
16 | 0.65 nM | B6
